Drawing on patent US20120003235A1 (published 2012), this text covers Kd for 5 molecules.

The target in assay [1] is T1, soluble Flag-tagged LTα1β2 (UniProt P01374 35-205, limits assumed).
T1 construct: Soluble, Flag-tagged heterotrimer captured on anti-Flag M2 in Biacore; also called Ligand
T1 sequence 1: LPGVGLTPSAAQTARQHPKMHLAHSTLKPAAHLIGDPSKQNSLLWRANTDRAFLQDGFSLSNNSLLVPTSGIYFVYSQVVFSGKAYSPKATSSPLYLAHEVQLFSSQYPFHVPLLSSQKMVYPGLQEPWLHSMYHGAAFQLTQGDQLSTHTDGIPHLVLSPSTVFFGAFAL
T1 sequence 2: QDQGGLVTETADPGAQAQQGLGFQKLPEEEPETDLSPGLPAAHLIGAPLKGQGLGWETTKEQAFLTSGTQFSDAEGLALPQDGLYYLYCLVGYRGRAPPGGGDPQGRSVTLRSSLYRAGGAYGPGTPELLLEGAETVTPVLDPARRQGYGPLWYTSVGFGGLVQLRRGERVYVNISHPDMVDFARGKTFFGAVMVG
Kind of assay: SPR (Biacore 3000), Flag-LTα1β2 captured on anti-Flag M2 chip; LTβR binding site 2. In general terms: SPR reads the build-up and loss of mass on a sensor chip optically.

In assay [2] the target is T1, soluble Flag-tagged LTα1β2. The assay is described as follows: SPR (Biacore 3000), Flag-LTα1β2 captured on anti-Flag M2 chip; LTβR binding site 1.
The target of assay [3] is T1, soluble Flag-tagged LTα1β2. Kind of assay: SPR (Biacore 3000), Flag-LTα1β2 captured on anti-Flag M2 chip; apparent affinity of intact antibody.
For assay [4], the target named is T1, soluble Flag-tagged LTα1β2. The assay is described as follows: SPR (Biacore 3000), Flag-LTα1β2 captured on anti-Flag M2 chip; Fab fragment.

B1: monomeric LTβR (receptor, UniProt P36941 28-227, looked up)
chain: SQPQAVPPYASENQTCRDQEKEYYEPQHRICCSRCPPGTYVSAKCSRIRDTVCATCAENSYNEHWNYLTICQLCRPCDPVMGLEEIAPCTSKRKTQCRCQPGMFCAAWALECTHCELLSDCPPGTEAELKDEVGKGNNHCVPCKAGHFQNTSSPSARCQPHTRCENQGLVEAAPGTAQSDTTCKNPLEPLPPEMSGTMLM
notes: Injected at 20 µM in Biacore; also called LTbR
Take B1: the Kd in assay [1] was roughly 1500 nM; in assay [2], roughly 50 nM.

B2: mAb 9B4 (antibody, V domains shown)
VH: QVTLKESGPGILQPSQTLSLTCSFSGFSLSTSGMGVSWIRQPSGKGLEWLAHIYWDDDKRYNPSLRSRLTISKDTSRNQVFLKITSVDTADTATYYCARREGYYGSSFDFDVWGAGTTVTVSS
VL: QIVLSQSPAILSASPGEKVTMTCRASSSVSYMIWYQQKPGSSPKPWIYATSSLASGVPTRFSGSGSGTSYSLTISRVEAADAATYYCQQWSYNPLTFGAGTKLELK
notes: Murine monoclonal antibody; only mature variable domains printed; kappa light chain; also called LT 9B4; LT9B4
With B2, the Kd in assay [3] was no more than 0.3 nM.

B3: mAb LT105 (P2E9.7) (antibody, V domains shown)
VH: DVQLQESGPGLVKPSQSLSLTCSVTGYSITSGYYWNWIRQFPGNKLEGMGYISYDGSNNYNPSLKNRISITRDSSKNQFFLKLNSVTAEDSGTYYCARDAYSYGMDYWGQGTSVTVSS
VL: DIVLTQSPASLAVSLGQRATISCRASESVDNYGISFMHWYQQKPGQPPKLLIYRASNLESGIPARFSGSGSRTDFTLTINPVETDDVATFYCQQSNKDPYTFGGGTKLEIK
notes: only mature variable domains printed
For the molecule B3, in assay [3], the Kd is no more than 0.3 nM.

B4: LT105 Fab fragment (Fab, V domains shown)
VH: DVQLQESGPGLVKPSQSLSLTCSVTGYSITSGYYWNWIRQFPGNKLEGMGYISYDGSNNYNPSLKNRISITRDSSKNQFFLKLNSVTAEDSGTYYCARDAYSYGMDYWGQGTSVTVSS
VL: DIVLTQSPASLAVSLGQRATISCRASESVDNYGISFMHWYQQKPGQPPKLLIYRASNLESGIPARFSGSGSRTDFTLTINPVETDDVATFYCQQSNKDPYTFGGGTKLEIK
In turn, B4 gave a Kd in assay [4] of no less than 2 nM.

B5: mAb LT102 (P1G8.2) (antibody, V domains shown)
VH: EVKLVESGGGLVKPGGSLKLSCAVSGFTFSDYYMYWIRQTPEKRLEWVATIGDGTSYTHYPDSVQGRFTISRDYATNNLYLQMTSLRSEDTALYYCARDLGTGPFAYWGQGTLVTVSA
VL: DVLMTQTPRSLPVSLGDQASISCRSSQNIVHSNGNTYLEWYLQKPGQSPKLLIYKVSNRFSGVPDRFSGSGSGTDFTLKISRVEAEDLGVYYCFQGSHFPWTFGGGTKLEIK
notes: only mature variable domains printed; also called LT012
For B5, the Kd in assay [3] is no more than 0.3 nM.
